Reference: the Immune Epitope Database (IEDB)

Columns and labels:
[1] = target: HLA-A*01:01; test: IEDB peptide-MHC binding, purified MHC/direct/fluorescence; filed as Kd, often an IC50 or EC50 that approximates it; ≥ and ≤ were set here for values at or beyond the usual limits of such assays; details: source organism: Escherichia coli 536
[2] = target: HLA-A*02:01; test: as above; details: source organism: Escherichia coli
[3] = target: HLA-A*03:01; test: as above; details: source organism: Escherichia coli
[4] = target: HLA-A*11:01; test: as above; details: source organism: Escherichia coli 536
[5] = target: HLA-A*26:01; test: as above; details: source organism: Escherichia coli 536
[6] = target: HLA-A*31:01; test: as above; details: source organism: Escherichia coli 536
[7] = target: HLA-A*69:01; test: as above; details: source organism: Escherichia coli 536
[8] = target: HLA-B*07:02; test: as above; details: source organism: Escherichia coli 536
[9] = target: HLA-B*08:01; test: as above; details: source organism: Escherichia coli 536
[10] = target: HLA-B*15:01; test: as above; details: source organism: Escherichia coli
[11] = target: HLA-B*27:05; test: as above; details: source organism: Escherichia coli 536
[12] = target: HLA-B*40:01; test: as above; details: source organism: Escherichia coli 536
[13] = target: HLA-B*58:01; test: as above; details: source organism: Escherichia coli 536
[14] = target: HLA-A*02:50; test: IEDB peptide-MHC binding, purified MHC/competitive/fluorescence; filed as Kd, often an IC50 or EC50 that approximates it; ≥ and ≤ were set here for values at or beyond the usual limits of such assays; details: source organism: Escherichia coli

RMYGISPWT gave a Kd [1] of at least 20 µM, a Kd [2] of 0.507 µM and a Kd [3] of 0.799 µM. The Kd [4] was at least 20 µM, the Kd [5] was at least 20 µM and the Kd [6] was at least 20 µM. For the same sequence, the Kd [7] was at least 20 µM, the Kd [8] was at least 20 µM and the Kd [9] was at least 20 µM. It also gave a Kd [10] of 0.455 µM, a Kd [11] of at least 20 µM and a Kd [12] of at least 20 µM. The Kd [13] was at least 20 µM and the Kd [14] was 0.0184 µM.
